For orientation: EC50 means the concentration needed to bring the measured effect to its halfway point. A lower EC50 goes with higher potency in that assay.

This is an account of results in patent publication US20110263827A1 (AbbVie / Abbott, published 2011).

One experiment has as its target T1, EGFR (UniProt P00533 25-645, limits assumed, biotinylated).
T1 construct: ELISA antigen; construct not described
The experiment in a line: direct bind ELISA, N-term VD.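 Note: antibody or DVD-Ig preparations bound to immobilized target antigen on ELISA plates, 1 h at room temperature, TMB detection read as absorbance at 450 nm.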

A further experiment deals with T2, HGF (UniProt P14210 32-728, limits assumed, biotinylated).
T2 construct: ELISA antigen
The experiment in a line: direct bind ELISA, C-term VD.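 Note: ELISA with antibody or DVD-Ig preparations applied to target antigen-coated plates for 1 h at room temperature, TMB colour development, absorbance read at 450 nm.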

B1: DVD335 (bispecific antibody)
VH: QVQLQESGPGLVKPSQTLSLTCTVSGYSISSDFAWNWIRQPPGKGLEWMGYISYSGNTRYQPSLKSRITISRDTSKNQFFLKLNSVTAADTATYYCVTAGRGFPYWGQGTLVTVSSASTKGPQVQLVESGGGLVKPGGSLRLSCAASGFTFSDYYMSWIRQAPGKGLEWVSYISSSGSTIYYADSVKGRFTISRDNAKNSLYLQMNSLRAEDTAVYYCARDEYNSGWYVLFDYWGQGTLVTVSS
VL: DIQMTQSPSSMSVSVGDRVTITCHSSQDINSNIGWLQQKPGKSFKGLIYHGTNLDDGVPSRFSGSGSGTDYTLTISSLQPEDFATYYCVQYAQFPWTFGGGTKLEIKRTVAAPDIQMTQSPSSVSASVGDRVTITCRASQGISSWLAWYQQKPGKAPNLLIYEASSLQSGVPSRFGGSGSGTDFTLTISSLQPEDFATYYCQQANGFPWTFGQGTKVEIKR
notes: DVD-Ig; HC S, LC S; variable parts only
In the case of B1, the 50% effective concentration (EC50) stood at 3.77 nM in the experiment with EGFR and 159 nM in the experiment with HGF.

B2: DVD777 (bispecific antibody)
VH: QVQLQESGPGLVKPSQTLSLTCTVSGYSISSDFAWNWIRQPPGKGLEWMGYISYSGNTRYQPSLKSRITISRDTSKNQFFLKLNSVTAADTATYYCVTAGRGFPYWGQGTLVTVSSASTKGPSVFPLAPQVQLVESGGGLVKPGGSLRLSCAASGFTFSDYYMSWIRQAPGKGLEWVSYISSSGSTIYYADSVKGRFTISRDNAKNSLYLQMNSLRAEDTAVYYCARDEYNSGWYVLFDYWGQGTLVTVSS
VL: DIQMTQSPSSMSVSVGDRVTITCHSSQDINSNIGWLQQKPGKSFKGLIYHGTNLDDGVPSRFSGSGSGTDYTLTISSLQPEDFATYYCVQYAQFPWTFGGGTKLEIKRTVAAPSVFIFPPDIQMTQSPSSVSASVGDRVTITCRASQGISSWLAWYQQKPGKAPNLLIYEASSLQSGVPSRFGGSGSGTDFTLTISSLQPEDFATYYCQQANGFPWTFGQGTKVEIKR
notes: DVD-Ig; HC L, LC L; variable parts only
Consider B2, for which the EC50 is 5.13 nM with EGFR and 0.96 nM with HGF.

B3: DVD837 (bispecific antibody)
VH: QVQLQESGPGLVKPSQTLSLTCTVSGYSISSDFAWNWIRQPPGKGLEWMGYISYSGNTRYQPSLKSRITISRDTSKNQFFLKLNSVTAADTATYYCVTAGRGFPYWGQGTLVTVSSASTKGPQVQLVESGGGLVKPGGSLRLSCAASGFTFSDYYMSWIRQAPGKGLEWVSYISSSGSTIYYADSVKGRFTISRDNAKNSLYLQMNSLRAEDTAVYYCARDEYNSGWYVLFDYWGQGTLVTVSS
VL: DIQMTQSPSSMSVSVGDRVTITCHSSQDINSNIGWLQQKPGKSFKGLIYHGTNLDDGVPSRFSGSGSGTDYTLTISSLQPEDFATYYCVQYAQFPWTFGGGTKLEIKRTVAAPSVFIFPPDIQMTQSPSSVSASVGDRVTITCRASQGISSWLAWYQQKPGKAPNLLIYEASSLQSGVPSRFGGSGSGTDFTLTISSLQPEDFATYYCQQANGFPWTFGQGTKVEIKR
notes: DVD-Ig; HC S, LC L; variable parts only
With B3, the EC50 with EGFR amounted to 4.51 nM; with HGF, 1.29 nM.

B4: DVD807 (bispecific antibody)
VH: QVQLQESGPGLVKPSQTLSLTCTVSGYSISSDFAWNWIRQPPGKGLEWMGYISYSGNTRYQPSLKSRITISRDTSKNQFFLKLNSVTAADTATYYCVTAGRGFPYWGQGTLVTVSSASTKGPSVFPLAPQVQLVESGGGLVKPGGSLRLSCAASGFTFSDYYMSWIRQAPGKGLEWVSYISSSGSTIYYADSVKGRFTISRDNAKNSLYLQMNSLRAEDTAVYYCARDEYNSGWYVLFDYWGQGTLVTVSS
VL: DIQMTQSPSSMSVSVGDRVTITCHSSQDINSNIGWLQQKPGKSFKGLIYHGTNLDDGVPSRFSGSGSGTDYTLTISSLQPEDFATYYCVQYAQFPWTFGGGTKLEIKRTVAAPDIQMTQSPSSVSASVGDRVTITCRASQGISSWLAWYQQKPGKAPNLLIYEASSLQSGVPSRFGGSGSGTDFTLTISSLQPEDFATYYCQQANGFPWTFGQGTKVEIKR
notes: DVD-Ig; HC L, LC S; variable parts only
Take B4: the EC50 was determined as 4.85 nM in the experiment with EGFR and 9.24 nM with HGF.
